Assay results: patent publication US12617863 (CCOA THERAPEUTICS, dated 2026)
Residue numbers refer to the chain shown, from its start. Values belong to the binder of their own block, whether it stands above or below them.

Columns and labels:
[1] = target: T1, mouse platelet glycoprotein I(b)α (GPIbα) on wild-type mouse platelets (mouse, UniProt O35930 17-734); test: flow cytometry, washed wild-type mouse platelets, Fab 5 µg/mL, FITC anti-human-Fab detection
T1 construct: whole, on cells; also called mouse GPIbα
T1 sequence (looked up): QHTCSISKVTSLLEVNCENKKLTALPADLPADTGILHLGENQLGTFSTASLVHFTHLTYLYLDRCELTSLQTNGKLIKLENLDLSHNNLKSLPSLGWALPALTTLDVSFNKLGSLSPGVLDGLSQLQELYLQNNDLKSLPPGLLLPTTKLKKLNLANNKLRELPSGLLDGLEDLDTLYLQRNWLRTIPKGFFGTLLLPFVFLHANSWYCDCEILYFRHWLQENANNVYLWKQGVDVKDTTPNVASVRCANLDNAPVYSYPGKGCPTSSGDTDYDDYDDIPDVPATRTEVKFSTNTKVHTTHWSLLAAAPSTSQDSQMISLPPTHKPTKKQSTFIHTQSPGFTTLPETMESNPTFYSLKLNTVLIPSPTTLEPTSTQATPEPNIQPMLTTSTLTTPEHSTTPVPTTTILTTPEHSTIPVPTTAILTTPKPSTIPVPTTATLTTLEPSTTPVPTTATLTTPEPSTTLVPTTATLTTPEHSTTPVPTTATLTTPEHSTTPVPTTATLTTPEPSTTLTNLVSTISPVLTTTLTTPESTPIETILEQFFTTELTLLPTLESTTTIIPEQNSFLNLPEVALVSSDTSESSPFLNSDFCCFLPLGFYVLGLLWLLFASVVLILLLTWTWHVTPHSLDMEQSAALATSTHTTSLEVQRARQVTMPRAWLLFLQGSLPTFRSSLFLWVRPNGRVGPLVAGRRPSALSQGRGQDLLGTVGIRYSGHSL
Description: (§1) Specificity. Human and mouse platelet-rich plasma (PRP) was prepared by centrifugation at 300 g for 7 min, and was washed by transferring 200 µL PRP into 10 mL PBS followed with 800 g centrifugation for 10 min. The supernatant was then removed and platelets were re-suspended in 200 µL PBS. Washed platelets (10 µL) were incubated with the different antibodies (2.5-5 µg/mL) in a 200 µL system at room temperature for 30 min, and detected by FITC labeled anti-human-Fab antibody. These eight selected humanized Fabs H001-H008, the scFv and the chimeric protein all bound to both human and wild-type mouse platelets, but not GPIbα deficient mouse platelets, indicating the specificity of the humanized Fabs to platelet GPIbα (FIGS. 4 and 19).

[2] = target: T2, human platelet glycoprotein I(b)α (GPIbα) on human platelets (human, UniProt P07359 17-652); test: flow cytometry on washed platelets, 2.5-5 µg/mL, FITC anti-human-Fab detection
T2 construct: whole, on cells; also called human GPIbα
T2 sequence (P07359 17-652): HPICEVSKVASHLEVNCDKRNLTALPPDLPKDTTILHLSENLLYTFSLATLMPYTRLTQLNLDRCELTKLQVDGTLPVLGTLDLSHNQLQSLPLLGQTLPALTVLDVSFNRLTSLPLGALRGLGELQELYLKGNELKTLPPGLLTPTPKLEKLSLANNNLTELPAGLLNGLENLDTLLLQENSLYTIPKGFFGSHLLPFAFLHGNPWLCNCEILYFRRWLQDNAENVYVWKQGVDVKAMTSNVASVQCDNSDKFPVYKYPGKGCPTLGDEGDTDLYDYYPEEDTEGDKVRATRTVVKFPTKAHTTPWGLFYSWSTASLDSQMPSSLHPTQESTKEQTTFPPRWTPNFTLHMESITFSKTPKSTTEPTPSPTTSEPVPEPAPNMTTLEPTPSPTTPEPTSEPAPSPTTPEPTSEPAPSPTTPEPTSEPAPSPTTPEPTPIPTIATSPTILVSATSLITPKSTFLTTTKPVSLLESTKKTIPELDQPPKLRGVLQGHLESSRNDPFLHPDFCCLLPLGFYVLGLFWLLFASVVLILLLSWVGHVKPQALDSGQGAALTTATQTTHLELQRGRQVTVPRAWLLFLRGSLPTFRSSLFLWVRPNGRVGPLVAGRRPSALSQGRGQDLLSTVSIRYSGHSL
Description: as §1

[3] = target: T2, human platelet glycoprotein I(b)α …; test: flow cytometry, human platelets from PRP, FITC anti-human kappa chain detection
Description: (§2) Platelets (2×10^5) from mouse, dog, human, rat and rabbit PRP were transferred into 200 µL PBS containing a serial concentration of the Fabs H001 or H002 at 50, 16.7, 5.6, 1.8, 0.6, 0.2 nM (for mouse and dog), at 200, 67, 22, 7.4, 2.5, 0.8, 0.3, 0.1 nM (for human and rat) and at 500, 100, 20, 4, 0.8 nM (for rabbit). After a 30 min incubation, a detection antibody (FITC-labeled anti-human Kappa chain, 1:200) was added and incubated in darkness for 15 min. Flow cytometry was performed using the BD LSR Fortessa™ X-20. H001 and H002 also bound to rat, dog and rabbit platelets (FIG. 5).

[4] = target: T3, dog platelet glycoprotein I(b)α (GPIbα) on dog platelets (dog, UniProt Q28256 17-677); test: flow cytometry, dog platelets from PRP, FITC anti-human kappa chain detection
T3 construct: whole, on cells; also called dog GPIbα
T3 sequence (looked up): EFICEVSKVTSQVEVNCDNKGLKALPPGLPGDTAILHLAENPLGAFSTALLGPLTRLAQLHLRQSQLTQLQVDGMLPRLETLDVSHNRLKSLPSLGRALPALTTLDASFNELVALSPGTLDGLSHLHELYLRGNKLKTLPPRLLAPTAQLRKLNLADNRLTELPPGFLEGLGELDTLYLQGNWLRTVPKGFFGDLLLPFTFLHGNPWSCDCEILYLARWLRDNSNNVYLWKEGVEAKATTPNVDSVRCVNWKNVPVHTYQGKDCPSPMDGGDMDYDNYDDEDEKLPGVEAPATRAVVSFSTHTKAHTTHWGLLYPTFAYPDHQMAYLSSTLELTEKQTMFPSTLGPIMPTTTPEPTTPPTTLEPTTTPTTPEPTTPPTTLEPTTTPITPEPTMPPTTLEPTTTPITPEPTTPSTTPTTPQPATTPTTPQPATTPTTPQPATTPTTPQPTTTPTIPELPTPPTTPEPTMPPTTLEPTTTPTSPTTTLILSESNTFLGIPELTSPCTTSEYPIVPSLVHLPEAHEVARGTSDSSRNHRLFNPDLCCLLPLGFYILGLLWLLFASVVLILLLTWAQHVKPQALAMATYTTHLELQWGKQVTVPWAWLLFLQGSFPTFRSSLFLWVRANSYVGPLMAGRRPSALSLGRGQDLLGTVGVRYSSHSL
Description: as §2

[5] = target: T1, mouse platelet glycoprotein I(b)α …; test: flow cytometry, mouse platelets from PRP, FITC anti-human kappa chain detection
Description: as §2

[6] = target: T4, rat platelet glycoprotein I(b)α (GPIbα) on rat platelets (rat); test: flow cytometry, rat platelets from PRP, FITC anti-human kappa chain detection
T4 construct: whole, on cells; also called rat GPIbα
Description: as §2

[7] = target: T5, recombinant hexa-histidine tagged GPIbα; test: SPR, His-tagged GPIbα held on Ni-NTA sensor, kinetics binding model
T5 construct: Held on a Ni-NTA SPR sensor by its hexa-histidine tag; also called recombinant GPIbα; immobilized GPIbα
T5 sequence (P07359 17-652): as the sequence (P07359 17-652) above
Description: (§3) The biosensors were rinsed with copious amounts of anhydrous ethanol followed by 16 hour incubation in a solution of 1 mM mercaptopropionic acid in dimethylformamide. Following the incubation, SPR biosensors were rinsed with copious amounts of dimethylformamide followed by anhydrous ethanol and finally ddH₂O. The biosensors were then incubated in 40 mM 1-Ethyl-3-(3-dimethylaminopropyl) carbodiimide and 20 mM N-Hydroxysuccinimide dissolved in ddH₂O for 1 hour. Sensors were then rinsed with copious amounts of ddH₂O and then incubated with 100 mM Nα,Nα-Bis(carboxymethyl)-L-lysine hydrate for 4 hour. Following the incubation, the biosensing surfaces were rinsed with ddH2O. The final step before SPR experiments was to expose the functionalized biosensing surfaces with 100 mM NiCl₂ for 1 hour.
(§4) The SPR experiments were performed on a Biosensing Instrument 4000 SPR. The functionalized biosensors were loaded onto the instrument and the biosensor was equilibrated with running buffer (10 mM tris(hydroxymethyl) aminomethane, 140 mM NaCl, 20 mM Imidazole pH=7.4) at a flow rate of 40 μL/min. For binding measurements 25 μL of 500 nM hexa-histidine tagged GPIbα was injected over the biosensing surface immobilizing the GPIbα to the SPR sensor surface. […] The resulting data was analyzed using the instrument included SPR analysis software. […]

[8] = target: T5, recombinant hexa-histidine tagged GPIbα; test: SPR steady-state response against H001 concentration, His-tagged GPIbα immobilised
Description: as §3, §4

[9] = target: T5, recombinant hexa-histidine tagged GPIbα; test: SPR, size of shifts against concentration, one site binding model
Description: The SPR experiments were performed on a Biosensing Instrument 4000 SPR. The functionalized biosensors were loaded onto the instrument and the biosensor was equilibrated with running buffer (10 mM tris(hydroxymethyl) aminomethane, 140 mM NaCl, 20 mM Imidazole pH=7.4) at a flow rate of 40 μL/min. For binding measurements 25 μL of 500 nM hexa-histidine tagged GPIbα was injected over the biosensing surface immobilizing the GPIbα to the SPR sensor surface. The baseline was allowed to equilibrate followed by injection of 25 μL of the desired concentration of ligand (either Fab H001 or control). Biosensing surfaces were regenerated between ligand injections by injection of 100 μL of 500 mM imidazole in running buffer, followed by 100 μL of 100 mM NiCl_2. The resulting data was analyzed using the instrument included SPR analysis software.
GPIbα immobilized SPR biosensors were exposed to 500, 100, 50 and 10 nM of Fab H001 antibody and 100 nM control antibody (PSI E1, an antibody against GPIIbIIIa). […] In contrast the Fab H001 antibody clearly bound GPIbα producing clear SPR shifts with only partial dissociation after the end of the injection (FIG. 7A).

B1: humanized Fab H004 (Fab, V domains shown)
VH: EVQLVESGGGLVQPGGSLRLSCAASGFTFSSFAMSWVRQAPGKGLEWVSSITSAGTPYYPDSVLGRFTISRDNSKNTLYLQMNSLRAEDTAVYYCAKSRGYEDYFDYWGQGTLVTVSS
VL: DIQMTQSPSSLSASVGDRVTITCKSSQSLLNSRNQKNYLAWYQQKPGKAPKLLIYFTSTRESGVPSRFSGSGSGTDFTLTISSLQPEDFATYYCQQHYSSPWTFGQGTKVEIKR
notes: Fab with human IgG1 CH1 and human kappa constant region; also called VH3 + VL2
binding result [1]: binds | binding result [2]: binds

B2: humanized Fab H005 (Fab, V domains shown)
VH: B1 VH
VL: DIVMTQSPLSLPVTPGEPASISCKSSQSLLNSRNQKNYLAWYLQKPGQSPQLLIYFTSTRESGVPDRFSGSGSGTDFTLKISRVEAEDVGVYYCQQHYSSPWTFGQGTKVEIKR
notes: Fab with human IgG1 CH1 and human kappa constant region; also called VH3 + VL3
binding result [1]: binds | binding result [2]: binds

B3: humanized Fab H003 (Fab, V domains shown)
VH: B1 VH with Q13K, S74A, T77S, K97R, L113T, S118R
VL: DIVMTQSPDSLAVSLGERATINCKSSQSLLNSRNQKNYLAWYQQKPGQPPKLLIYFTSTRESGVPDRFSGSGSGTDFTLTISSLQAEDVAVYYCQQHYSSPWTFGGGTKLEIKR
notes: Fab with human IgG1 CH1 and human kappa constant region; also called VH2 + VL1
binding result [1]: binds | binding result [2]: binds

B4: humanized Fab H007 (Fab, V domains shown)
VH: B1 VH with E1Q, L11V, G16R, S49A, K97R
VL: B1 VL
notes: Fab with human IgG1 CH1 and human kappa constant region; also called VH4 + VL2
binding result [1]: binds | binding result [2]: binds

B5: humanized Fab H002 (Fab, V domains shown)
VH: B1 VH with E1Q, Q13K, V37I, S74A, T77S, K97R
VL: B2 VL
notes: Fab with human IgG1 CH1 and human kappa constant region; also called Fab H002 antibody; VH1 + VL3
binding result [3]: binds | EC50 (read off the curve) [4]: ~2 nM | binding result [5]: binds | EC50 (read off the curve) [6]: ~3 nM

The next lines start with the values.

binding result [1]: binds | binding result [2]: binds
B6: humanized Fab H008 (Fab, V domains shown)
VH: B1 VH with E1Q, L11V, G16R, S49A, K97R
VL: B2 VL
notes: Fab with human IgG1 CH1 and human kappa constant region; also called VH4 + VL3

Kd [7]: 4.4 nM | koff [7]: 0.11 s⁻¹ | EC50 (read off the curve) [3]: ~10 nM | EC50 (read off the curve) [4]: ~3 nM | EC50 (read off the curve) [8]: ~80 nM | binding result [1]: binds | EC50 (read off the curve) [6]: ~3 nM | Kd [9]: 8 nM
B7: humanized Fab H001 (Fab, V domains shown)
VH: B1 VH with E1Q, Q13K, V37I, S74A, T77S, K97R
VL: B1 VL
notes: Fab with human IgG1 CH1 and human kappa constant region; also called Fab H001 antibody; VH1 + VL2

binding result [1]: binds | binding result [2]: binds
B8: humanized Fab H006 (Fab, V domains shown)
VH: B1 VH with E1Q, L11V, G16R, S49A, K97R
VL: B3 VL
notes: Fab with human IgG1 CH1 and human kappa constant region; also called VH4 + VL1
